From patent US5668107A, “Compositions and methods for inhibiting elastase” (The UAB Research Foundation, priority 1995, dated 1997)
Where no end group is shown, it is not given here.

How the values were obtained:
[1] = biological target: T1, DFP-treated human neutrophil elastase (Homo sapiens, UniProt P08246); assay: ELISA binding to DFP-treated HNE; conditions: FIG. 3A, 10 μg/ml, corrected for non-specific binding to BSA
T1 sequence (P08246 30-247 limits assumed): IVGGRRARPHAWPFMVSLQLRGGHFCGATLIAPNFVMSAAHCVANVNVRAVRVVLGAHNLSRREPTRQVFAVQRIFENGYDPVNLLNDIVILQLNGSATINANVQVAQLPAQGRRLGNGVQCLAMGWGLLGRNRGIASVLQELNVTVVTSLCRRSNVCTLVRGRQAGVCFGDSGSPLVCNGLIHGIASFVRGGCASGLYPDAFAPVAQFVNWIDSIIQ
Procedure: (§1) Plastic microtiter wells were coated overnight at 4° C. with 100 μls of antigens appropriately diluted in PBS. Plates were washed 3× with approximately 300 μls PBS/well. Any remaining reactive sites were blocked by adding 200 μls 1% BSA in PBS/well and incubating for 1 hr at 37° C. The plates were again washed 3× with approximately 300 μls PBS/well. The rabbit anti-human AAT and HSA polyclonal antibodies were diluted 1/40,000 with PBS containing 0.05% Tween-20. 50 μls of this diluted primary antibody was added/appropriate well. The plate was again incubated for 1 hr at 37° C., then washed 3× with approximately 300 μls PBS/well. 50 μls of an appropriately diluted secondary antibody (goat anti-rabbit IgG diluted 1/16,000) was added/well. The plates were again incubated for 1 hr at 37° C., then washed 5× with approximately 300 μls PBS/well. 50 μls of color developing ortho-phenylenediamine (OPD) solution was added/well. The plates were incubated for 30 min at 37° C. The reaction was finally stopped by the addition of 50 μls/well of 4.5M sulfuric acid and read at 492 nm.
(§2) An ELISA was also developed to quantitate the potential binding affinity of various antigens for AAT (SEQ ID NO:1) and/or SPAAT (SEQ ID NO:4). […]

Chymotrypsin [2] = biological target: Chymotrypsin (Bos taurus, UniProt P00766); assay: Serine protease assay with p-nitroanilide substrate, chymotrypsin; assay type: biochemical
Procedure: (§3) Serine protease assays were performed using p-nitroanalide amide substrates. Trypsin activity was assayed by using Benzyl-PHE-VAL-ARG-PNA (0.5 mg/ml). Chymotrypsin activity was assayed by using SUC-(ALA)2 -PRO-PHE-PNA (SEQ ID NO:5) (10 mg/ml in DMSO). Elastase activity was assayed by using SUC-(ALA)3 -PNA (10 mg/ml in DMSO). The dilution of each of these enzymes required to produce a change in absorbance of approximately 0.4 after a 15 min incubation at 37° C. was initially determined. The complete reaction mixture contained 10 μls of this enzyme dilution plus 100 μls of the appropriate above substrate and 0-50 uls of the indicated concentration of inhibitor or TBS to maintain constant volume. Trypsin, chymotrypsin, and HNE assays were incubated at 37° C. for 15 min, while pancreatic elastase assays were incubated at 37° C. for 1.5 min. The reaction was terminated by the addition of a sufficient quantity of ice cold TBS to bring each assay up to a final volume of 1 ml. The absorbance of the p-nitroaniline produced was measured against a distilled water blank at 410 nm on a Hitachi model 100-40 spectrophotometer. Percent inhibition was calculated as: 100-[(A1 E+I/A1 E)×100].

Pancreatic elastase = Pancreatic elastase (Homo sapiens, UniProt Q9UNI1); assay: Serine protease assay with p-nitroanilide substrate, pancreatic elastase; assay type: biochemical; conditions: FIG. 2, preliminary enzyme kinetic experiments, desalted SPAAT preparations
Procedure: as §3

Trypsin = biological target: T2, Trypsin (Bos taurus, UniProt P00760); assay: Serine protease assay with p-nitroanilide substrate, trypsin; assay type: biochemical; conditions: FIG. 2, preliminary enzyme kinetic experiments, desalted SPAAT preparations
T2 construct: gene PRSS1
T2 sequence (P00760 24-246): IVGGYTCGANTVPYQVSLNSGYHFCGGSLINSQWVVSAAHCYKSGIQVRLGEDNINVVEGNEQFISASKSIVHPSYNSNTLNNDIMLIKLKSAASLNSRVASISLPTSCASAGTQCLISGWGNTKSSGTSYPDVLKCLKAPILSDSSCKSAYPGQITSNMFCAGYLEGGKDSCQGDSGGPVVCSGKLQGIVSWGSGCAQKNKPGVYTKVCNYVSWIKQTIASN
Procedure: as §3

[3] = biological target: T3, DFP-treated human neutrophil cathepsin G (Homo sapiens, UniProt P08311); assay: ELISA binding to DFP-treated cathepsin G; conditions: FIG. 3B, 10 μg/ml, corrected for non-specific binding to BSA
T3 sequence (P08311 21-243 limits assumed): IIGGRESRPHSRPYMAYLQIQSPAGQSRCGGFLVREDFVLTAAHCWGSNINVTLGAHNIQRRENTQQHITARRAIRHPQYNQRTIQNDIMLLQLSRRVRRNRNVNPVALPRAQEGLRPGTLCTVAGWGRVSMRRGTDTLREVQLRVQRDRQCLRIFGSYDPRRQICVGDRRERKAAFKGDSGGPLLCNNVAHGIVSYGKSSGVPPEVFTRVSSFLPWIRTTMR
Procedure: as §1, §2

[4] = biological target: T4, HNE (human neutrophil elastase) (Homo sapiens, UniProt P08246); assay: Serine protease assay with p-nitroanilide substrate, HNE; assay type: biochemical
T4 sequence (P08246 30-267): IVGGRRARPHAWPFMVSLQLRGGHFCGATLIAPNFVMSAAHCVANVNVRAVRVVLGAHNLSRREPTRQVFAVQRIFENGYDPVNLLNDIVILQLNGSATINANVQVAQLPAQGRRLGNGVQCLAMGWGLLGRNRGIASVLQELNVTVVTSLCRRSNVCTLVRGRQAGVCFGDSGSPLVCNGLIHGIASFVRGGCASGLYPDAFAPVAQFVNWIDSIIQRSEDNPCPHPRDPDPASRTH
Procedure: as §3

Chymotrypsin [5] = assay: enzyme inhibition kinetics with chymotrypsin, p-nitroanilide substrate
[6] = biological target: human neutrophil elastase (active enzyme) (human) (UniProt P08246)
[7] = FIG. 2, preliminary enzyme kinetic experiments, desalted SPAAT preparations

Sequence of Pancreatic elastase (Q9UNI1 19-258): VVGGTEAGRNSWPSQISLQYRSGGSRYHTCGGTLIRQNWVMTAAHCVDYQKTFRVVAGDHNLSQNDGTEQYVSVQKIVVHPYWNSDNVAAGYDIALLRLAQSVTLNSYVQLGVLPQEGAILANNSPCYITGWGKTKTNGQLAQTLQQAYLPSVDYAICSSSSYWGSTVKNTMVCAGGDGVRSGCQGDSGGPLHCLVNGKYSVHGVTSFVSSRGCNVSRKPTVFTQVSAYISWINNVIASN

“SPAAT: 44-residue C-terminal fragment of α1 antitrypsin (MET-351 to LYS-394); desalted preparations isolated from human placenta (MFLEAIPMSIPPQVKFNKPFVFLMIEQNTKSPLFMGKVVNPTQK)” was tested, and the “binding to DFP-treated HNE” value [1] was “bound”, the “inhibition of chymotrypsin (rank order of inhibition)” value (Chymotrypsin [2]; [7]) was “chymotrypsin>HNE>pancreatic elastase” and the “KI relative to Km, competitive inhibitor of chymotrypsin” value (Chymotrypsin [2]; preliminary calculations from inhibitor concentrations required to totally inhibit chymotrypsin) was ~ 1/10. The “inhibition of pancreatic elastase (rank order of inhibition)” value (Pancreatic elastase) was “chymotrypsin>HNE>pancreatic elastase”, the effect on trypsin (Trypsin) was “no effect” and the “binding to DFP-treated cathepsin G” value [3] was “bound”. For the same molecule, the “inhibition of HNE activity (compared with native AAT)” value [4, 7] was “almost as well as native AAT”.

For “MFLEAIPMSIPPQVKFNKPFVFLMIEQNTKSPLFMGKVVNPTQK [chemically synthesized SPAAT]”, the “effectiveness as inhibitor of HNE relative to SPAAT isolated from placenta, mole-for-mole” value ([4]; ratio of the KI values) was “eight-fold less effective”.

In the case of “placental SPAAT: SPAAT isolated from human placenta, associated with collagen in the placental material (MFLEAIPMSIPPQVKFNKPFVFLMIEQNTKSPLFMGKVVNPTQK)”, the Ki (Chymotrypsin [2]; chymotrypsin as the subject enzyme) is reported as 0.92 µM.

With “α1 Antitrypsin (AMFLEAIPMSIPPEVKFNKPFVFLMIEQNTKSPLFMGKVVNPTQK) [AAT]” the “binding to DFP-treated HNE” value [1] was “bound” and the “binding to DFP-treated cathepsin G” value [3] was “bound”.

B1: chemically synthesized SPAAT (peptide)
peptide: MFLEAIPMSIPPQVKFNKPFVFLMIEQNTKSPLFMGKVVNPTQK
Work on B1 yielded a Ki (Chymotrypsin [5]) of 7.5 µM and an inhibitory effectiveness, mole-for-mole [6] of 8 fold.

B2: SPAAT isolated from human placenta (44-residue C-terminal fragment of alpha1 antitrypsin) (peptide)
peptide: B1 peptide
B2 gave a Ki (Chymotrypsin [5]) of 0.92 µM.
